Measured values taken from publication PMC2796168 (2009).

B1: CCL3 (ligand)
chain: SLAADTPTACCFSYTSRQIPQNFIADYFETSSQCSKPGVIFLTKRSRQVCADPSEEWVQKYVSDLELSA
B2: Evasin-1 WT (natural protein)
chain: EDDEDYGDLGGCPFLVAENKTGYPTIVACKQDCNGTTETAPNGTRCFSIGDEGLRRMTANLPYDCPLGQCSNGDCIPKETYEVCYRRNWRDKKN

How the values were obtained:
[1] = target: T1, Evasin-1 F14A W89A (Rhipicephalus sanguineus, UniProt P0C8E7 21-114, F14A | W89A); experiment: SPR; immobilized CCL3
[2] = target: B2; experiment: SPR
[3] = target: T1, Evasin-1 F14A W89A; experiment: SPR; immobilized CCL3; remark: listed apart in the source
[4] = target: B2; experiment: SPR
[5] = target: B1; experiment: SPR; immobilized CCL3
[6] = target: B1; experiment: SPR; immobilized CCL3

| Binder | koff [1] [s⁻¹] | koff [2] [s⁻¹] | Kd [3] [nM] | Kd [4] [nM] | koff [5] [s⁻¹] | Kd [6] [nM] |
| --- | --- | --- | --- | --- | --- | --- |
| B1 | 0.0146 | 0.00243 | 32.2 | 0.12 |  |  |
| CCL4 (protein, disulfide (positions not given here)) APMGSDPPTACCFSYTARKLPRNFVVDYYETSSLCSQPAVVFQTKRSKQVCADPSESWVQEYVYDLELN |  | 0.0022 |  | 0.51 |  |  |
| B2 |  |  |  |  | 0.00276 | 8 |
| Δ4CCL3 (ligand) ADTPTACCFSYTSRQIPQNFIADYFETSSQCSKPGVIFLTKRSRQVCADPSEEWVQKYVSDLELSA |  | 0.00041 |  | 0.17 |  |  |
| CCL18 (protein, disulfide (positions not given here)) AQVGTNKELCCLVYTSWQIPQKFIVDYSETSPQCPKPGVILLTKRGRQICADPNKKWVQKYISDLKLNA |  | 0.0111 |  | 3.21 |  |  |
| CCL3/CCL5 chimera (ligand) ASLAADTPTACCFAYIARPLPRAHIKEYFYTSGKCSNPAVVFVTRKNRQVCANPEKKWVREYINSLEMS |  | 0.0038 |  | 1.02 |  |  |
